In patent publication US20080009458:

Tested on: p53

Substance: GST-COP1
- in vitro ubiquitination of p53 (immunoblot of ubiquitinated species of p53): Only with all of the reaction components and p53 present was COP1 able to directly ubiquitinate p53
